This passage reports kon, stoichiometry N and Ka results from article PMC5871787.

One may read the kon as the rate constant with which the complex forms. The low end stands for slow association, the high end for fast association. The stoichiometry N is the number of molecules, sites or subunits per partner or assembly.

The target in assay [1] is M3 peptide (complementary 11th β-strand peptide of split GFP). In words: other fluorescence titration; fluorescence complementation kinetics, pseudo-first order: 0.1 µM M3 peptide with 0.1–30 µM total sFP, TN buffer pH 8.0 with 1 mM DTT, 5 mM EDTA, 0.05% CHAPS, 25 °C, 14 hours; kobs1 against the concentration of sFP monomers fitted by a line; binding irreversible.
Assay [2] addresses sGFPori (sGFP 1–10 OPT), recombinant. In words: SEC; size-exclusion HPLC of purified, non-complemented sFPs at high concentration; sGFP2 (ReAsH-labelled) at 20 µM, concentrations of the other sFPs not stated. (In general: SEC sorts molecules by how far they enter the pores of the column.)
Assay [3] has the same target. The assay is described as follows: fluorescence polarisation; steady-state fluorescence anisotropy of ReAsH-labelled sFP at 20, 10, 5, 2.5, 1.25 and 0.5 µM, after equilibrium at RT, triplicate; apparent equilibrium constant of dimer formation (monomers to dimer). (In general: Polarisation of emitted light reports the rotation of a fluorescent probe.)

In assay [1], “sGFPori (sGFP 1–10 OPT), recombinant (domain or fragment)” registered an on-rate (kon) of 70 M⁻¹ s⁻¹. Further, the stoichiometry N in assay [2] is 2. For the same substance, the Ka in assay [3] worked out at 320000 M⁻¹.
